± gives the uncertainty stated by the source.

From the Human Domainome abundance scans (Beltran et al. 2025) come the findings set out here.

B1: Neutrophil cytosol factor 2, residues 456 to 514; numbered along this chain, P19878 (parent)
chain: LKKGSQVEALFSYEATQPEDLEFQEGDIILVLSKVNEEWLEGECKGKVGIFPKVFVEDC

The variants in this data set derive from B1. Briefly: abundance fitness (aPCA) (normalised: wild type 0, dead -1); higher = more abundant; growth selection in yeast, the domain comes from the species named. Conditions: Homo sapiens.
In the case of LKKGSQVEALFSYEATQPWDLEFQEGDIILVLSKVNEEWLEGECKGKVGIFPKVFVEDC [E19W], the abundance fitness is -0.166 ± 0.17.

In the case of LKKGSQVEALFSYEATQPKDLEFQEGDIILVLSKVNEEWLEGECKGKVGIFPKVFVEDC [E19K], the abundance fitness was -0.723 ± 0.4. LKKGSQVEALFSYEATQPLDLEFQEGDIILVLSKVNEEWLEGECKGKVGIFPKVFVEDC [E19L]: the abundance fitness worked out at 0.006 ± 0.09.

For LKKGSQVEALFSYEATQPFDLEFQEGDIILVLSKVNEEWLEGECKGKVGIFPKVFVEDC [E19F], the abundance fitness was -0.676 ± 0.14.

In the case of LKKGSQVEALFSYEATQPGDLEFQEGDIILVLSKVNEEWLEGECKGKVGIFPKVFVEDC [E19G], the abundance fitness worked out at 0.598 ± 0.071. Then LKKGSQVEALFSYEATQPQDLEFQEGDIILVLSKVNEEWLEGECKGKVGIFPKVFVEDC [E19Q], with -0.216 ± 0.27; and LKKGSQVEALFSYEATQPDDLEFQEGDIILVLSKVNEEWLEGECKGKVGIFPKVFVEDC [E19D], with -0.501 ± 0.2. Then LKKGSQVEALFSYEATQPADLEFQEGDIILVLSKVNEEWLEGECKGKVGIFPKVFVEDC [E19A], with -0.172 ± 0.11. As for LKKGSQVEALFSYEATQPPDLEFQEGDIILVLSKVNEEWLEGECKGKVGIFPKVFVEDC [E19P], the abundance fitness was -1.06 ± 0.34. On to LKKGSQVEALFSYEATQPRDLEFQEGDIILVLSKVNEEWLEGECKGKVGIFPKVFVEDC [E19R], for which the abundance fitness is -0.295 ± 0.099. Then LKKGSQVEALFSYEATQPTDLEFQEGDIILVLSKVNEEWLEGECKGKVGIFPKVFVEDC [E19T], with -0.055 ± 0.12; and LKKGSQVEALFSYEATQPNDLEFQEGDIILVLSKVNEEWLEGECKGKVGIFPKVFVEDC [E19N], with 0.156 ± 0.1. LKKGSQVEALFSYEATQPHDLEFQEGDIILVLSKVNEEWLEGECKGKVGIFPKVFVEDC [E19H]: the abundance fitness is -0.096 ± 0.13. For LKKGSQVEALFSYEATQPSDLEFQEGDIILVLSKVNEEWLEGECKGKVGIFPKVFVEDC [E19S] the value was -0.229 ± 0.08; for LKKGSQVEALFSYEATQPIDLEFQEGDIILVLSKVNEEWLEGECKGKVGIFPKVFVEDC [E19I], -0.305 ± 0.11.

For LKKGSQVEALFSYEATQPVDLEFQEGDIILVLSKVNEEWLEGECKGKVGIFPKVFVEDC [E19V], the abundance fitness is -0.443 ± 0.12. On to LKKGSQVEALFSYEATQPMDLEFQEGDIILVLSKVNEEWLEGECKGKVGIFPKVFVEDC [E19M], for which the abundance fitness is -0.463 ± 0.22. For LKKGSQVEALFSYEATQPCDLEFQEGDIILVLSKVNEEWLEGECKGKVGIFPKVFVEDC [E19C] the value was -0.112 ± 0.087; for LKKGSQVEALFSYEATQPEALEFQEGDIILVLSKVNEEWLEGECKGKVGIFPKVFVEDC [D20A], -0.198 ± 0.12. Then LKKGSQVEALFSYEATQPEILEFQEGDIILVLSKVNEEWLEGECKGKVGIFPKVFVEDC [D20I], with -0.375 ± 0.13. In the case of LKKGSQVEALFSYEATQPECLEFQEGDIILVLSKVNEEWLEGECKGKVGIFPKVFVEDC [D20C], the abundance fitness was 0.014 ± 0.085. Then LKKGSQVEALFSYEATQPEELEFQEGDIILVLSKVNEEWLEGECKGKVGIFPKVFVEDC [D20E], with 0.757 ± 0.14; and LKKGSQVEALFSYEATQPEGLEFQEGDIILVLSKVNEEWLEGECKGKVGIFPKVFVEDC [D20G], with -0.125 ± 0.092; and LKKGSQVEALFSYEATQPEHLEFQEGDIILVLSKVNEEWLEGECKGKVGIFPKVFVEDC [D20H], with 0.904 ± 0.074. For LKKGSQVEALFSYEATQPEKLEFQEGDIILVLSKVNEEWLEGECKGKVGIFPKVFVEDC [D20K] the value was -0.683 ± 0.38; for LKKGSQVEALFSYEATCPEDLEFQEGDIILVLSKVNEEWLEGECKGKVGIFPKVFVEDC [Q17C], 0.148 ± 0.088. For LKKGSQVEALFSYEATYPEDLEFQEGDIILVLSKVNEEWLEGECKGKVGIFPKVFVEDC [Q17Y] the value was -0.09 ± 0.12.

In the case of LKKGSQVEALFSYEATVPEDLEFQEGDIILVLSKVNEEWLEGECKGKVGIFPKVFVEDC [Q17V], the abundance fitness was -0.643 ± 0.13. For LKKGSQVEALFSYEATIPEDLEFQEGDIILVLSKVNEEWLEGECKGKVGIFPKVFVEDC [Q17I] the value was -0.393 ± 0.11. For LKKGSQVEALFSYEATRPEDLEFQEGDIILVLSKVNEEWLEGECKGKVGIFPKVFVEDC [Q17R] the value was 0.296 ± 0.077; for LKKGSQVEALFSYEATAPEDLEFQEGDIILVLSKVNEEWLEGECKGKVGIFPKVFVEDC [Q17A], 0.324 ± 0.088; for LKKGSQVEALFSYEATPPEDLEFQEGDIILVLSKVNEEWLEGECKGKVGIFPKVFVEDC [Q17P], -1.03 ± 0.34. For LKKGSQVEALFSYEATEPEDLEFQEGDIILVLSKVNEEWLEGECKGKVGIFPKVFVEDC [Q17E] the value was -0.504 ± 0.3; for LKKGSQVEALFSYEATSPEDLEFQEGDIILVLSKVNEEWLEGECKGKVGIFPKVFVEDC [Q17S], 0.615 ± 0.07; for LKKGSQVEALFSYEATHPEDLEFQEGDIILVLSKVNEEWLEGECKGKVGIFPKVFVEDC [Q17H], -0.123 ± 0.13. On to LKKGSQVEALFSYEATTPEDLEFQEGDIILVLSKVNEEWLEGECKGKVGIFPKVFVEDC [Q17T], for which the abundance fitness came to 0.2 ± 0.1. Then LKKGSQVEALFSYEATMPEDLEFQEGDIILVLSKVNEEWLEGECKGKVGIFPKVFVEDC [Q17M], with -0.27 ± 0.36. For LKKGSQVEALFSYEATWPEDLEFQEGDIILVLSKVNEEWLEGECKGKVGIFPKVFVEDC [Q17W] the value was -0.753 ± 0.25. For LKKGSQVEALFSYEATNPEDLEFQEGDIILVLSKVNEEWLEGECKGKVGIFPKVFVEDC [Q17N] the value was -0.093 ± 0.11. Regarding LKKGSQVEALFSYEATKPEDLEFQEGDIILVLSKVNEEWLEGECKGKVGIFPKVFVEDC [Q17K], the abundance fitness turned out to be 0.796 ± 0.18. Then LKKGSQVEALFSYEATFPEDLEFQEGDIILVLSKVNEEWLEGECKGKVGIFPKVFVEDC [Q17F], with -0.793 ± 0.2; and LKKGSQVEALFSYEATGPEDLEFQEGDIILVLSKVNEEWLEGECKGKVGIFPKVFVEDC [Q17G], with 0.478 ± 0.067. For LKKGSQVEALFSYEATLPEDLEFQEGDIILVLSKVNEEWLEGECKGKVGIFPKVFVEDC [Q17L] the value was -0.266 ± 0.11.

As to LKKGSQVEALFSYEATQSEDLEFQEGDIILVLSKVNEEWLEGECKGKVGIFPKVFVEDC [P18S], the abundance fitness is -0.587 ± 0.11. Then LKKGSQVEALFSYEATQAEDLEFQEGDIILVLSKVNEEWLEGECKGKVGIFPKVFVEDC [P18A], with -0.284 ± 0.14.
